Measured values: patent US20230357429A1 (JANUX THERAPEUTICS, published 2023)
Where no end group is shown, it is not given here.

Experiments:
[1] = molecular target: T1, TBD-6 (LC I93A); assay: competition ELISA, Fab on captured TROP2
T1 construct: anti-TROP2 Fab, CDR3 LC alanine mutant

[2] = molecular target: T2, TBD-11 (HC R98A); assay: competition ELISA, Fab on captured TROP2
T2 construct: anti-TROP2 Fab, CDR3 HC alanine mutant

[3] = molecular target: T3, TBD-1 wt (anti-TROP2 Fab, hRS7); assay: competition ELISA, Fab on captured TROP2
T3 construct: non-mutated Fab

[4] = molecular target: T4, TBD-21 (HC F108A); assay: competition ELISA, Fab on captured TROP2
T4 construct: anti-TROP2 Fab, CDR3 HC alanine mutant

[5] = molecular target: T5, TBD-22 (HC D109A); assay: competition ELISA, Fab on captured TROP2
T5 construct: anti-TROP2 Fab, CDR3 HC alanine mutant

[6] = molecular target: T6, TBD-17 (HC S104A); assay: competition ELISA, Fab on captured TROP2
T6 construct: anti-TROP2 Fab, CDR3 HC alanine mutant

[7] = molecular target: T7, TBD-6 (LC I93A); assay: competition ELISA, peptide vs Fab binding to captured biotin-TROP2
T7 construct: Fab; also called LC I93A mutant

[8] = molecular target: T8, TBD-1 wt; assay: as above
T8 construct: Fab; the heavy chain entry is VH-CH1; also called wild-type anti-TROP2 Fab (hRS7); TROP2 Fab

[9] = molecular target: T9, TBD-22 (HC D109A); assay: as above
T9 construct: Fab; also called HC D109A mutant

[10] = molecular target: T10, TBD-21 (HC F108A); assay: as above
T10 construct: Fab; also called HC F108A mutant

[11] = molecular target: T11, TBD-11 (HC R98A); assay: as above
T11 construct: Fab; also called HC R98A mutant

[12] = molecular target: T12, TBD-17 (HC S104A); assay: as above
T12 construct: Fab; also called HC S104A mutant

Binder	IC50 [1] [nM]	IC50 [2] [nM]	IC50 [3] [nM]	IC50 [4] [nM]	IC50 [5] [nM]	IC50 [6] [nM]	IC50 [7] [nM]	IC50 [8] [nM]	IC50 [9] [nM]	IC50 [10] [nM]	IC50 [11] [nM]	IC50 [12] [nM]
VEFCAIYSWPICKI (mask peptide for the TROP2 Fab) [Peptide-46]	5180	22300	5140	25900	700	11500	–	–	–	–	–	–
VDFCGLYHWPICYQ (mask peptide for the TROP2 Fab) [Peptide-8]	760	940	–	2120	100	1250	–	–	–	–	–	–
VDFCALYHWPICYQ (mask peptide for the TROP2 Fab) [Peptide-43]	480	870	270	1040	50	510	–	–	–	–	–	–
IDFCAVYKWPVCQV (cysteine pairing not given here; also: biotinylated (site not given here)) [Peptide-2]	–	–	–	–	–	–	1100	2230	160	5880	5850	2080
IDFCAIYQWPVCRS (cysteine pairing not given here; also: biotinylated (site not given here)) [Peptide-10]	–	–	–	–	–	–	620	1220	60	2900	4040	1520
MDFCQIYDWPICRL (cysteine pairing not given here; also: biotinylated (site not given here)) [Peptide-18]	–	–	–	–	–	–	6110	1270	350	7560	3960	7080
LDFCKIYDWPICHL (cysteine pairing not given here; also: biotinylated (site not given here)) [Peptide-14]	–	–	–	–	–	–	1540	2190	190	6920	3420	5720
VDFCKIYAWPICGS (cysteine pairing not given here; also: biotinylated, site not given here) [Peptide-4]	–	–	–	–	–	–	400	460	130	3300	3240	2040
VDFCYMYKWPVCYP (mask peptide for the TROP2 Fab) [Peptide-48]	6260	31300	10000	75200	310	8860	–	–	–	–	–	–
VDFCKLYNWPVCQT (cysteine pairing not given here; also: biotinylated, site not given here) [Peptide-5]	–	–	–	–	–	–	1050	1590	100	7160	7230	1790
PDFCAVYRWPICYQ (cysteine pairing not given here; also: biotinylated (site not given here)) [Peptide-12]	–	–	–	–	–	–	1460	460	70	2240	850	2230
SYLVCVKNVYCWTA (cysteine pairing not given here; also: biotinylated, site not given here) [Peptide-29]	–	–	–	–	–	–	800	920	33600	1490	9170	1110
IDFCAMYQWPICDT (cysteine pairing not given here; also: biotinylated (site not given here)) [Peptide-1]	–	–	–	–	–	–	350	780	70	2890	2490	1020
VDFCELYRWPICNS (cysteine pairing not given here; also: biotinylated (site not given here)) [Peptide-13]	–	–	–	–	–	–	970	1010	200	3200	2680	2990
IDFCLLYDWPICGR (cysteine pairing not given here; also: biotinylated (site not given here)) [Peptide-17]	–	–	–	–	–	–	760	430	70	2940	1950	2070
IDFCLIYNWPVCDT (cysteine pairing not given here; also: biotinylated, site not given here) [Peptide-6]	–	–	–	–	–	–	1860	–	90	7940	8840	3090

More lines, now with the values ahead:

IC50 [1] [nM]	IC50 [2] [nM]	IC50 [3] [nM]	IC50 [4] [nM]	IC50 [5] [nM]	IC50 [6] [nM]	IC50 [7] [nM]	IC50 [8] [nM]	IC50 [9] [nM]	IC50 [10] [nM]	IC50 [11] [nM]	IC50 [12] [nM]	Binder
2250	6370	3730	8670	70	2530	–	–	–	–	–	–	IDFCLLYKWPVCEL (mask peptide for the TROP2 Fab) [Peptide-49]
920	1970	560	3700	20	1540	–	–	–	–	–	–	VDFCAIYSWPICKI (mask peptide for the TROP2 Fab) [Peptide-50]
670	2560	470	5450	160	2090	–	–	–	–	–	–	VDFCNLYHWPICAI (mask peptide for the TROP2 Fab) [Peptide-60]
23400	–	27100	161000	3620	29900	–	–	–	–	–	–	VDFCYRYSWPVCWA (mask peptide for the TROP2 Fab) [Peptide-54]
420	620	180	1270	10	550	–	–	–	–	–	–	VDFCGLYHWPICYQV (mask peptide for the TROP2 Fab) [Peptide-51]
12700	–	16700	88100	1910	17300	–	–	–	–	–	–	IDFCYRYGWPVCQT (mask peptide for the TROP2 Fab) [Peptide-57]
1940	7550	3490	9640	100	3490	–	–	–	–	–	–	VDFCALYNWPVCAI (mask peptide for the TROP2 Fab) [Peptide-59]
3120	14000	4390	16800	330	7210	–	–	–	–	–	–	VDFCYKYNWPICSR (mask peptide for the TROP2 Fab) [Peptide-55]
5620	21000	10100	106000	3030	24100	–	–	–	–	–	–	VDFCYQYGWPICSRV (mask peptide for the TROP2 Fab) [Peptide-56]
4510	16100	8930	22700	590	7560	–	–	–	–	–	–	IDFCRVYDWPVCSL (mask peptide for the TROP2 Fab) [Peptide-53]
1190	12200	1830	7750	260	1830	–	–	–	–	–	–	VDFCALYHWPVCGL (mask peptide for the TROP2 Fab) [Peptide-61]
